{
  "source": "patent EP4814013A1",
  "about": "(Nanjing Regenecore Biotech Co., Ltd., dated 2026)",
  "key": {"[1]": {"molecular_target": "T1, human recombinant CD16a extracellular domain protein, amino acids 17-208 with F at position 176 (CD16a-F176) (human, UniProt P08637 17-208)", "T1 construct": "range 17-208; Made in-house in 293F cells; also called human CD16a (F176)", "T1 sequence (P08637 17-208 limits assumed)": "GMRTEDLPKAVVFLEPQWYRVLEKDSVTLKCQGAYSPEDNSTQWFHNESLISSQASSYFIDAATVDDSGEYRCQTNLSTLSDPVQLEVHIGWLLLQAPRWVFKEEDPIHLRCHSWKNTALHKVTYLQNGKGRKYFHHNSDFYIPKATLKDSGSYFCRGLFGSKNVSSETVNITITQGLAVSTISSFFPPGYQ", "test": "ELISA of crude VHH extracts of panned phage-library clones on coated antigen, anti-HA-HRP; positive = OD more than 5 times the control"}, "[2]": {"molecular_target": "T2, human recombinant CD16a extracellular domain protein, amino acids 17-208 with V at position 176 (CD16a-V176) (human, UniProt P08637 17-208)", "T2 construct": "range 17-208; Made in-house in 293F cells; also called human CD16a (V176)", "T2 sequence (P08637 17-208 F176V limits assumed)": "as the sequence (P08637 17-208 limits assumed) above, with F160V counted along it", "test": "ELISA of crude VHH extracts of panned phage-library clones on coated antigen, anti-HA-HRP; positive = OD more than 5 times the control"}, "[3]": {"molecular_target": "T3, human recombinant FOLR1 extracellular domain protein, amino acids 25-233 (human, UniProt P15328 25-233)", "T3 construct": "range 25-233; Made in-house in 293F cells", "T3 sequence (P15328 25-233 limits assumed)": "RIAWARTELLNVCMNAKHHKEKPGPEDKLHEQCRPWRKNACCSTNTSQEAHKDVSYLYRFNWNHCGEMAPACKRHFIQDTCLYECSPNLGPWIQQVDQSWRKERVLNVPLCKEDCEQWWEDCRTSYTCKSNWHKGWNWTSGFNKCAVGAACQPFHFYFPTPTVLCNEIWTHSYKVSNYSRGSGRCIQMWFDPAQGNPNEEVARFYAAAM", "test": "phage display panning and clone ELISA as in Examples 1-4"}, "[4]": {"molecular_target": "T4, human recombinant Nkp46 extracellular domain protein, amino acids 22-254 (human, UniProt O76036 22-254)", "T4 construct": "range 22-254; Made in-house in 293F cells", "T4 sequence (O76036 22-254 limits assumed)": "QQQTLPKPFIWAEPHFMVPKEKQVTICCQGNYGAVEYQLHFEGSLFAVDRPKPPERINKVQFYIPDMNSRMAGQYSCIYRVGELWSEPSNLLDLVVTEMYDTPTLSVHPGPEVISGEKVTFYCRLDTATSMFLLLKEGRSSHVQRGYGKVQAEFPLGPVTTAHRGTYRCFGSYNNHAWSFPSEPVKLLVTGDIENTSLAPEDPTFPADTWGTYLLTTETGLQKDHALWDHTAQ", "test": "phage display panning and clone ELISA as in Examples 1-4"}},
  "data": [
    {"binder": "anti-CD16a single-domain antibody clone 4B5 (VHH, crude extract from pMECS) (VHH, Crude antibody extract of an E. coli TG1 clone; not shown: C-terminal tag(s) from the pMECS vector (HA tag detected with anti-HA-HRP, tag for nickel-column purification)) VHH: QVQLVESGGGLVQAGGSLRLSCAASGGTFRIYAMGWFRQAPGKEREFVGSISMMRGITDYAESVKGRFTISRDNAKFTMYLQMNSLKSEDTAVYYCAKAVDKSPYGGWGWGPYDDWGQGTQVTVSS", "values": [
      {"measurement": "binding result", "setting": "[1]", "value": "binds"}
    ]},
    {"binder": "anti-CD16a single-domain antibody clone 15E2 (VHH, crude extract from pMECS) (VHH, Crude antibody extract of an E. coli TG1 clone; not shown: C-terminal tag(s) from the pMECS vector (HA tag detected with anti-HA-HRP, tag for nickel-column purification)) VHH: QVQLVESGGGLVQAGDSLRLSCAASGGTFRIYAMGWFRQAPGKEREFVGSISMMRGITDYAESVKGRFTISRDNAKFTMYLQMNTLKPEDTAVYYCAIRERPPPMGWGLAGISYDYWGQGTQVTVSS", "values": [
      {"measurement": "binding result", "setting": "[1]", "value": "binds"}
    ]},
    {"binder": "anti-CD16a single-domain antibody clone 14A3 (VHH, crude extract from pMECS) (VHH, Crude antibody extract of an E. coli TG1 clone; not shown: C-terminal tag(s) from the pMECS vector (HA tag detected with anti-HA-HRP, tag for nickel-column purification)) VHH: QVQLVESGGGLVQPGGSLRLSCEVSGRTFSYLALGWFRQAPGKEREFVAAASWGGGSTGYADSVKGRFAISRDNVKNTQYLQMNSLKPEDTAVYYCVVGRRFKGSVYYTPNEYEYWGQGTQVTVSS", "values": [
      {"measurement": "binding result", "setting": "[2]", "value": "binds"}
    ]},
    {"binder": "anti-CD16a single-domain antibody clone 23D1 (VHH, crude extract from pMECS) (VHH, Crude antibody extract of an E. coli TG1 clone; not shown: C-terminal tag(s) from the pMECS vector (HA tag detected with anti-HA-HRP, tag for nickel-column purification)) VHH: QVQLVESGGGLVQAGGSLRLSCAVSGRTFSYLAMGWFRQAPGKEREFVAASSWGGGTSGYADSVKGRFAISRDNAKNTQYLQMNSLKPEDTAVYYCVVGRRFKGSVYYTPNEYEYWGQGTQVTVSS", "values": [
      {"measurement": "binding result", "setting": "[2]", "value": "binds"}
    ]},
    {"binder": "anti-CD16a single-domain antibody clone 13G6 (VHH, crude extract from pMECS) (VHH, Crude antibody extract of an E. coli TG1 clone; not shown: C-terminal tag(s) from the pMECS vector (HA tag detected with anti-HA-HRP, tag for nickel-column purification)) VHH: QVQLVESGGGLVQPGGSLRLSCAASGRTFRIYAMGWFRQAPGKEREFVGSIRLMRGITDYADSVKGRFTISRDNAKFTMYLQMNTLKPEDTAVYYCAAVGSGGDFYTPSTSGEYRYWGQGTQVTVSS", "values": [
      {"measurement": "binding result", "setting": "[2]", "value": "binds"}
    ]},
    {"binder": "FOLR1-4F4 single-domain antibody (VHH, Parental (not humanized) clone as screened) VHH: QVQLVESGGGSVQAGGSLRLSCAASDGTYRRYCMGWFRQAPGKEREKVAAIYTGDGTTYYADSVKGRFTISQENAKNTMYLQMNSLKPEDTAMYYCAADRSGCSVAWSYSSFEDWGQGTQVTVSS", "values": [
      {"measurement": "binding result", "setting": "[3]", "value": "binds"}
    ]},
    {"binder": "Nkp46-7F10 single-domain antibody (VHH, Parental (not humanized) clone as screened) VHH: QVQLVESGGGLVQAGGSLRLSCAASGRTFSSYAMGWFRQAPGKEREFVAGISWSGDSTYYADSVKGRFTISRDNAKNTVGLQMNSLKPEDTAVYYCAAASGQVQTVVVVTDRWYHYWGQGTQVTVSS", "values": [
      {"measurement": "binding result", "setting": "[4]", "value": "binds"}
    ]}
  ]
}
